In the Human Domainome abundance scans (Beltran et al. 2025):
± gives the uncertainty stated by the source.

B1: CD2-associated protein, residues 1 to 59; numbered along this chain, Q9Y5K6 (parent)
chain: MVDYIVEYDYDAVHDDELTIRVGEIIRNVKKLQEEGWLEGELNGRRGMFPDNFVKEIKR

Variants of: B1
Experiment: abundance fitness (aPCA) (normalised: wild type 0, dead -1); higher = more abundant; growth selection in yeast, the domain comes from the species named
Conditions: Homo sapiens
Work on MVDYIVEYDYDAVHDDELTIRVGEIIRNVKKLQEEGWLEGELNGRRGAFPDNFVKEIKR [M48A] yielded an abundance fitness of 0.045 ± 0.086.
Variant MVDYIVEYDYDAVHDDELTIRVGEIIRNVKKLQEEGWLEGELNGRRGCFPDNFVKEIKR [M48C] has an abundance fitness of -0.012 ± 0.18.
Variant MVDYIVEYDYDAVHDDELTIRVGEIIRNVKKLQEEGWLEGELNGRRGDFPDNFVKEIKR [M48D] has an abundance fitness of -0.573 ± 0.23.
Variant MVDYIVEYDYDAVHDDELTIRVGEIIRNVKKLQEEGWLTGELNGRRGMFPDNFVKEIKR [E39T] has an abundance fitness of -0.26 ± 0.1.
Variant MVDYIVEYDYDAVHDDELTIRVGEIIRNVKKLQEEGWLSGELNGRRGMFPDNFVKEIKR [E39S] has an abundance fitness of -0.057 ± 0.087.
Work on MVDYIVEYDYDAVHDDELTIRVGEIIRNVKKLQEEGWLNGELNGRRGMFPDNFVKEIKR [E39N] yielded an abundance fitness of -0.446 ± 0.21.
In the case of MVDYIVEYDYDAVHDDELTIRVGEIIRNVKKLQEEGWLQGELNGRRGMFPDNFVKEIKR [E39Q], the abundance fitness is reported as -0.248 ± 0.2.
Variant MVDYIVEYDYDAVHDDELTIRVGEIIRNVKKLQEEGWLVGELNGRRGMFPDNFVKEIKR [E39V] has an abundance fitness of -0.201 ± 0.11.
Work on MVDYIVEYDYDAVHDDELTIRVGEIIRNVKKLQEEGWLRGELNGRRGMFPDNFVKEIKR [E39R] yielded an abundance fitness of -0.486 ± 0.093.
MVDYIVEYDYDAVHDDELTIRVGEIIRNVKKLQEEGWLMGELNGRRGMFPDNFVKEIKR [E39M] showed an abundance fitness of -0.256 ± 0.13.
MVDYIVEYDYDAVHDDELTIRVGEIIRNVKKLQEEGWLYGELNGRRGMFPDNFVKEIKR [E39Y] gave an abundance fitness of -0.164 ± 0.15.
MVDYIVEYDYDAVHDDELTIRVGEIIRNVKKLQEEGWLLGELNGRRGMFPDNFVKEIKR [E39L] showed an abundance fitness of -0.427 ± 0.1.
MVDYIVEYDYDAVHDDELTIRVGEIIRNVKKLQEEGWLEGELNGFRGMFPDNFVKEIKR [R45F] gave an abundance fitness of -0.248 ± 0.19.
In the case of MVDYIVEYDYDAVHDDELTIRVGEIIRNVKKLQEEGWLEGELNGNRGMFPDNFVKEIKR [R45N], the abundance fitness is reported as -0.16 ± 0.14.
MVDYIVEYDYDAVHDDELTIRVGEIIRNVKKLQEEGWLEGELNGLRGMFPDNFVKEIKR [R45L] gave an abundance fitness of -0.224 ± 0.11.
MVDYIVEYDYDAVHDDELTIRVGEIIRNVKKLQEEGWLEGELNGHRGMFPDNFVKEIKR [R45H] gave an abundance fitness of 0.232 ± 0.2.
With MVDYIVEYDYDAVHDDELTIRVGEIIRNVKKLQEEGWLEGELNGARGMFPDNFVKEIKR [R45A] the abundance fitness was -0.27 ± 0.14.
In the case of MVDYIVEYDYDAVHDDELTIRVGEIIRNVKKLQEEGWLEGELNGKRGMFPDNFVKEIKR [R45K], the abundance fitness is reported as -0.075 ± 0.23.
MVDYIVEYDYDAVHDDELTIRVGEIIRNVKKLQEEGWLEGELNGYRGMFPDNFVKEIKR [R45Y] gave an abundance fitness of -0.359 ± 0.24.
Variant MVDYIVEYDYDAVHDDELTIRVGEIIRNVKKLQEEGWLEGELNGQRGMFPDNFVKEIKR [R45Q] has an abundance fitness of -0.009 ± 0.13.
MVDYIVEYDYDAVHDDELTIRVGEIIRNVKKLQEEGWLEGELNGGRGMFPDNFVKEIKR [R45G] gave an abundance fitness of -0.7 ± 0.31.
In the case of MVDYIVEYDYDAVHDDELTIRVGEIIRNVKKLQEEGWLEGELNGIRGMFPDNFVKEIKR [R45I], the abundance fitness is reported as -0.191 ± 0.12.
MVDYIVEYDYDAVHDDELTIRVGEIIRNVKKLQEEGWLEGELNGSRGMFPDNFVKEIKR [R45S] showed an abundance fitness of -0.07 ± 0.079.
For MVDYIVEYDYDAVHDDELTIRVGEIIRNVKKLQEEGWLEGELNGCRGMFPDNFVKEIKR [R45C], the abundance fitness was 0.033 ± 0.26.
Work on MVDYIVEYDYDAVHDDELTIRVGEIIRNVKKLQEEGWLEGELNGVRGMFPDNFVKEIKR [R45V] yielded an abundance fitness of -0.275 ± 0.13.
With MVDYIVEYDYDAVHDDELTIRVGEIIRNVKKLQEEGWLEGELNGMRGMFPDNFVKEIKR [R45M] the abundance fitness was -0.274 ± 0.14.
In the case of MVDYIVEYDYDAVHDDELTIRVGEIIRNVKKLQEEGWLEGEANGRRGMFPDNFVKEIKR [L42A], the abundance fitness is reported as -0.327 ± 0.15.
Variant MVDYIVEYDYDAVHDDELTIRVGEIIRNVKKLQEEGWLEGESNGRRGMFPDNFVKEIKR [L42S] has an abundance fitness of -0.267 ± 0.1.
MVDYIVEYDYDAVHDDELTIRVGEIIRNVKKLQEEGWLEGETNGRRGMFPDNFVKEIKR [L42T] gave an abundance fitness of -0.515 ± 0.18.
Work on MVDYIVEYDYDAVHDDELTIRVGEIIRNVKKLQEEGWLEGEWNGRRGMFPDNFVKEIKR [L42W] yielded an abundance fitness of -0.399 ± 0.16.
MVDYIVEYDYDAVHDDELTIRVGEIIRNVKKLQEEGWLEGEINGRRGMFPDNFVKEIKR [L42I] showed an abundance fitness of 0.043 ± 0.22.
For MVDYIVEYDYDAVHDDELTIRVGEIIRNVKKLQEEGWLEGEHNGRRGMFPDNFVKEIKR [L42H], the abundance fitness was -0.297 ± 0.15.
Work on MVDYIVEYDYDAVHDDELTIRVGEIIRNVKKLQEEGWLEGEMNGRRGMFPDNFVKEIKR [L42M] yielded an abundance fitness of -0.678 ± 0.21.
For MVDYIVEYDYDAVHDDELTIRVGEIIRNVKKLQEEGWLEGECNGRRGMFPDNFVKEIKR [L42C], the abundance fitness was -0.012 ± 0.13.
In the case of MVDYIVEYDYDAVHDDELTIRVGEIIRNVKKLQEEGWLEGEYNGRRGMFPDNFVKEIKR [L42Y], the abundance fitness is reported as -0.839 ± 0.43.
Variant MVDYIVEYDYDAVHDDELTIRVGEIIRNVKKLQEEGWLEGEVNGRRGMFPDNFVKEIKR [L42V] has an abundance fitness of -0.146 ± 0.14.
Variant MVDYIVEYDYDAVHDDELTIRVGEIIRNVKKLQEEGWLEGEQNGRRGMFPDNFVKEIKR [L42Q] has an abundance fitness of -0.328 ± 0.19.
Work on MVDYIVEYDYDAVHDDELTIRVGEIIRNVKKLQEEGWLEGEFNGRRGMFPDNFVKEIKR [L42F] yielded an abundance fitness of -0.212 ± 0.12.
Work on MVDYIVEYDYDAVHDDELTIRVGEIIRNVKKLQEEGWLEDELNGRRGMFPDNFVKEIKR [G40D] yielded an abundance fitness of -0.825 ± 0.36.
In the case of MVDYIVEYDYDAVHDDELTIRVGEIIRNVKKLQEEGWLEEELNGRRGMFPDNFVKEIKR [G40E], the abundance fitness is reported as -0.926 ± 0.41.
MVDYIVEYDYDAVHDDELTIRVGEIIRNVKKLQEEGWLEMELNGRRGMFPDNFVKEIKR [G40M] gave an abundance fitness of -0.661 ± 0.31.
For MVDYIVEYDYDAVHDDELTIRVGEIIRNVKKLQEEGWLELELNGRRGMFPDNFVKEIKR [G40L], the abundance fitness was -0.945 ± 0.24.
Variant MVDYIVEYDYDAVHDDELTIRVGEIIRNVKKLQEEGWLEVELNGRRGMFPDNFVKEIKR [G40V] has an abundance fitness of -0.904 ± 0.43.
Work on MVDYIVEYDYDAVHDDELTIRVGEIIRNVKKLQEEGWLESELNGRRGMFPDNFVKEIKR [G40S] yielded an abundance fitness of -0.463 ± 0.12.
Variant MVDYIVEYDYDAVHDDELTIRVGEIIRNVKKLQEEGWLERELNGRRGMFPDNFVKEIKR [G40R] has an abundance fitness of -0.858 ± 0.23.
